Experimental findings from article PMC11381654 (2020) are described below.

The target of this experiment is human IL‐4Rα (human, UniProt P24394 26-232, N‐glycosylation sites (modelled in the crystal structure; positions not given)). Kind of experiment: ITC. (In general: Isothermal titration calorimetry measures the heat released or taken up as one component is titrated into another.)

B1: dAb1 (VHH)
VHH: QVQLVESGGGLVQPGGSLRLSCAASGDFYCMAWFRQAPGKEREAVAAIRSGGRSTYYADSVKGRFTISRDNSKNTLYLQMNSLKAEDTAVYYCAVGVDGNCRNYWGQGTLVTVSS
The Kd is a measure of binding affinity in units of concentration. A low value points to tighter binding. B1 showed a Kd of 2.55 nM.
